Measurements taken from PMC12259648.

Experiments:
[1] = molecular target: 212579 T40HN, I29LV, T40LA, V108LG (human); test: SPR; Biacore 1K+; purified IgG captured (about 100 RU) on anti-human IgG (Fc) on a CM5 chip; Phl p 5 injected at 1.875-60 nM, 25 uL/min, 120 s, 1360 s dissociation; PBS with 0.02% Tween 20; 1:1 Langmuir model
[2] = molecular target: 212579 I29LV, T40LA, V108LG (human); test: as above
212579 I53HV (human) = test: as above
212579 T40HN (human) = test: as above
212579 G62HS (human) = test: as above
[3] = molecular target: 212579 T40HN, I53HV, H113HY (human); test: as above
[4] = molecular target: 212579 I53HV, I29LV, T40LA, V108LG (human); test: as above
212579 E38HS (human) = test: as above
[5] = molecular target: 212579 T40HN, I53HV (human); test: as above
212579 H113HY (human) = test: SPR; Biacore 1K+; antibody 212579 H113HY captured from culture supernatant without prior purification on anti-human IgG (Fc) on a CM5 chip; Phl p 5 injected at 1.875-60 nM; PBS with 0.02% Tween 20; 1:1 Langmuir model

Kd [1]: 4.3 nM
koff [1]: 0.0005 s⁻¹
kon [1]: 120000 M⁻¹ s⁻¹
Kd [2]: 1.5 nM
koff [2]: 0.00035 s⁻¹
kon [2]: 230000 M⁻¹ s⁻¹
Kd (212579 I53HV (human)): 0.31 nM
koff (212579 I53HV (human)): 0.00013 s⁻¹
kon (212579 I53HV (human)): 420000 M⁻¹ s⁻¹
Kd (212579 T40HN (human)): 0.49 nM
koff (212579 T40HN (human)): 0.00016 s⁻¹
kon (212579 T40HN (human)): 320000 M⁻¹ s⁻¹
Kd (212579 G62HS (human)): 0.27 nM
koff (212579 G62HS (human)): 0.00011 s⁻¹
kon (212579 G62HS (human)): 420000 M⁻¹ s⁻¹
Kd [3]: 0.92 nM
koff [3]: 0.00014 s⁻¹
kon [3]: 160000 M⁻¹ s⁻¹
Kd [4]: 1.5 nM
koff [4]: 0.00033 s⁻¹
kon [4]: 220000 M⁻¹ s⁻¹
Kd (212579 E38HS (human)): 9.9 nM
koff (212579 E38HS (human)): 0.00273 s⁻¹
kon (212579 E38HS (human)): 280000 M⁻¹ s⁻¹
Kd [5]: 0.56 nM
koff [5]: 0.00014 s⁻¹
Kd (212579 H113HY (human)): 1.4 nM
koff (212579 H113HY (human)): 0.00036 s⁻¹
kon (212579 H113HY (human)): 260000 M⁻¹ s⁻¹
Substance: Phl p 5.0101 (natural protein)
